Test results as given in patent US20220162314A1.

Target: Recombinant human CD8ab protein (extracellular domains of CD8a and CD8b with leucine zippers and tags) (human) (UniProt P01732)
Assay: ELISA: antigen coated on the plate, antibody titrated, anti-IgG (Fc)-HRP and TMB, A450

Sequence of Recombinant human CD8ab protein (extracellular domains of CD8a and CD8b with leucine zippers and tags) (human) (P01732 22-182, chain 1 of 2): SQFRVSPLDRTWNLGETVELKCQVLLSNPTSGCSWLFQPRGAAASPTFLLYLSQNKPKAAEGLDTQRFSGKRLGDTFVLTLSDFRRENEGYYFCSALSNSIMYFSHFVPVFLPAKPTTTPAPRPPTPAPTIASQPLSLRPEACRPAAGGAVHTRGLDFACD
Sequence of Recombinant human CD8ab protein (extracellular domains of CD8a and CD8b with leucine zippers and tags) (human) (P10966 22-170, chain 2 of 2, further chain): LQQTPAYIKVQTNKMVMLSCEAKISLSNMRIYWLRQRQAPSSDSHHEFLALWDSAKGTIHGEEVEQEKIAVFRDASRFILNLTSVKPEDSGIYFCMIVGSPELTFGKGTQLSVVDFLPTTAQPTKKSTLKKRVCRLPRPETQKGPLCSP

xhCD8a2 (clone SK1, Biolegend) (antibody)
EC50 (read off the curve): 0.1 nM
